The values below come from patent US20160102316A1, “STRESS TOLERANT PLANTS” (CONSEJO SUPERIOR DE INVESTIGACIONES CIENTIFICAS(CSIC), priority 2013, published 2016).

T1: YFPN:PYL8 (Arabidopsis, UniProt Q9FGM1 1-188)
T1 construct: BiFC construct expressed transiently in N. benthamiana leaves; also called PYL8 fusion with the N-portion of YFP; not shown: N-portion of the yellow fluorescent protein (YFP)
T1 sequence (looked up): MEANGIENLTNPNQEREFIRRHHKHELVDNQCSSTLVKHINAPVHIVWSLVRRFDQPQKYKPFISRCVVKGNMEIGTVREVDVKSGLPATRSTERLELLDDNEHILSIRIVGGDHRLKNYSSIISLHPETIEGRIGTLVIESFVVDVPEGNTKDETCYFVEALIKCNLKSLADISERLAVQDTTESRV

T2: full length PYL8 (Arabidopsis, UniProt Q9FGM1 1-188)
T2 construct: Gal4-domain fusion in the yeast two-hybrid assays; also called ABA receptor PYL8
T2 sequence (looked up): T1 sequence (looked up)

T3: DET1 (Arabidopsis, UniProt P48732 1-543)
T3 construct: Endogenous protein in the TAP; also called DEETIOLATED 1
T3 sequence (looked up): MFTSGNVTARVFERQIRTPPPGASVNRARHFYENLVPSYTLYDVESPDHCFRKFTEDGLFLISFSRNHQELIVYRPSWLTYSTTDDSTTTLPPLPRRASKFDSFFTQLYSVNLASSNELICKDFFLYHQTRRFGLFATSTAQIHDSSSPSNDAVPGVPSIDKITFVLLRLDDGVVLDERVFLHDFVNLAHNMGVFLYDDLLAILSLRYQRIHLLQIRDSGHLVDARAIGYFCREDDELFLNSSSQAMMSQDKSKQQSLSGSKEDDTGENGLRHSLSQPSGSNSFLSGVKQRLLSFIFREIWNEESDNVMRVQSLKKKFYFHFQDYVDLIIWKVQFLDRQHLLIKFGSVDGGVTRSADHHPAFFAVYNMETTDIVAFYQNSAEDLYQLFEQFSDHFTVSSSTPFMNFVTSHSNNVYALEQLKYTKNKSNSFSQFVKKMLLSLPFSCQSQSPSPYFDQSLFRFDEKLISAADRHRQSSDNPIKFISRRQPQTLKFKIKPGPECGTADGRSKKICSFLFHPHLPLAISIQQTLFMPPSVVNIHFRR

B1: DDA1:YFPC (other)
chain: MASILGDLPSFDPHNFSQHRPSDPSNPSKMVPTTYRPTHNRTLPPPDQVITTEVKNILIRSFYQRAEEKLRPKRPATDHLAAEHVNKHFRAASSSSSTQGL
notes: BiFC construct expressed transiently in N. benthamiana leaves; also called DDA1 fusion with the C-portion of YFP; not shown: C-portion of the yellow fluorescent protein (YFP)
B2: COP10 (other, Arabidopsis, UniProt Q9LJD7 1-182, looked up)
chain: MMTPGGSGRLRPLPTAMYAGYSGTASSWVAKTSVSASGKRIQREMAELNIDPPPDCSAGPKGDNLYHWIATIIGPSGTPYEGGIFFLDIIFPSDYPFKPPKLVFKTRIYHCNVDTAGDLSVNILRDSWSPALTITKVLQAIRSIFLKPEPYSPALPVIARLYLTDREKHDEVAKEWTLRFAK
notes: Endogenous protein in the TAP; also called CONSTITUTIVE PHOTOMORPHOGENIC10
B3: PYL5 (receptor, Arabidopsis, UniProt Q9FLB1 1-203, looked up)
chain: MRSPVQLQHGSDATNGFHTLQPHDQTDGPIKRVCLTRGMHVPEHVAMHHTHDVGPDQCCSSVVQMIHAPPESVWALVRRFDNPKVYKNFIRQCRIVQGDGLHVGDLREVMVVSGLPAVSSTERLEILDEERHVISFSVVGGDHRLKNYRSVTTLHASDDEGTVVVESYIVDVPPGNTEEETLSFVDTIVRCNLQSLARSTNRQ
B4: PYL6 (receptor, Arabidopsis, UniProt Q8S8E3 1-215, looked up)
chain: MPTSIQFQRSSTAAEAANATVRNYPHHHQKQVQKVSLTRGMADVPEHVELSHTHVVGPSQCFSVVVQDVEAPVSTVWSILSRFEHPQAYKHFVKSCHVVIGDGREVGSVREVRVVSGLPAAFSLERLEIMDDDRHVISFSVVGGDHRLMNYKSVTTVHESEEDSDGKKRTRVVESYVVDVPAGNDKEETCSFADTIVRCNLQSLAKLAENTSKFS
B5: DDA1 fused to the binding domain of GAL4 (pGBKT7-DDA1) (other)
chain: MKLLSSIEQACDICRLKKLKCSKEKPKCAKCLKNNWECRYSPKTKRSPLTRAHLTEVESRLERLEQLFLLIFPREDLDMILKMDSLQDIKALLTGLFVQDNVNKDAVTDRLASVETDMPLTLRQHRISATSSSEESSNKGQRQLTVSMASILGDLPSFDPHNFSQHRPSDPSNPSKMVPTTYRPTHNRTLPPPDQVITTEVKNILIRSFYQRAEEKLRPKRPATDHLAAEHVNKHFRAASSSSSTQGL
notes: Other vector-encoded residues of pGBKT7 are not described; also called AtDDA1; DET1-, DDB1-Associated 1

Test [1] has as its target T1, YFPN:PYL8. Description: BiFC in N. benthamiana epidermal cells. How it is done: To confirm that DDA1 and PYL8 interact in planta, we performed bimolecular fluorescence complementation (BiFC) assays. N. benthamiana leaves were coinfiltrated with Agrobacterium tumefaciens cells to express DDA1 and PYL8 fusions with the Nor C-portions of the yellow fluorescent protein (YFP). The infiltrated leaves were analyzed under the confocal fluorescence microscope 3 d after infiltration.
YFPN:PYL8/DDA1:YFPC were co-infiltrated into the abaxial surface of 3-week-old N. benthamiana plants as described (Voinnet et al., 2003). The p19 protein was used to suppress gene silencing. The empty vectors were used as negative controls. Fluorescence was visualized in epidermal cells of leaves after 3 d of infiltration using a Leica sp5 confocal microscope. Nuclei were visualized after submerging the leaves in a DAPI solution (1 μg mL-1 DAPI in 100 mM phosphate buffer, 0.5% Triton X-100).

Test [2] addresses B5. Description: yeast two-hybrid. Here is the method: (§1) (A) Y187 yeast cells transformed with pGBKT7-DDA1 were used to screen a cDNA library prepared from Arabidopsis seedlings in the pGADT7 vector and transformed into AH109 cells. Positive clones included truncated versions of ABA receptors PYL4 and PYL9. Yeast clones were grown in selective media containing different concentrations of 3AT (ranging 0.5 to 5 […]). Empty pGADT7 vector was used as negative control. (B-C) DDA1 interaction with full length PYL8 (B), PYL4, PYL5, PYL6 or PYL9 (C) was assessed using yeast two hybrid experiments as in (A). Physical association between PYL8 and other components of the CDD complex (DDB1a, DDB1b, DET1 and COP10) was also tested (B).
(§2) The molecular basis of DDA1 activity is unknown. To get insights into its mechanism of action, we searched for proteins that interact with DDA1. With this aim, we conducted a yeast two-hybrid screen using DDA1 as bait. Thus, the full-length coding sequence of DDA1 fused to the binding domain of GAL4 was used to screen a cDNA library prepared from Arabidopsis seedlings. From over 15 million clones screened, 200 were identified as potential DDA1 interactors. Among them, 20 were subsequently confirmed by retransformation into yeast. […] We aimed to determine whether DDA1 interacts with full length PYL4 and PYL9 and with other Arabidopsis PYR/PYL/RCAR family members using yeast two hybrid assays.
(§3) The full length DDA1 cDNA was cloned into the pGBKT7 (Gal4 DNA binding domain, BD; Clontech). […] To confirm protein interactions, plasmids were co-transformed into Saccharomyces cerevisiae AH109 cells, following standard heat-shock protocols (Chini et al., 2007).

Test [3] has as its target T2, full length PYL8. Description: yeast two-hybrid (FIG. 4B). Here is the method: as §1
The full length DDA1 cDNA was cloned into the pGBKT7 (Gal4 DNA binding domain, BD; Clontech). […] To confirm protein interactions, plasmids were co-transformed into Saccharomyces cerevisiae AH109 cells, following standard heat-shock protocols (Chini et al., 2007). Successfully transformed colonies were identified on yeast synthetic drop-out lacking Leu and Trp; these colonies were resuspended in water and transferred to selective media lacking Ade, His, Leu and Trp. Plates without His were supplemented with different concentrations of 3-amino 1,2,4-triazole (3AT; ranging 0.5-10 mM). Yeast cells were incubated at 30° C. during 6 days. Empty vectors were co-transformed as negative controls. To test the DDA1 interaction with specific DDB1a domains, DDB1a truncated versions were generated and cloned into the pGADT7 vector as follows: BPA (aa 16-350), BPB (aa 387-704), BPA+BPB (aa 16-704), BPC (aa 704-1002) and BPB+BPC (aa 350-1002). Full length DDB1a was used as a positive control.

Test [4] has as its target T3, DET1. Description: yeast two-hybrid. How it is done:
as §1, §2, §3

On to B1, for which the binding result in test [1] is on record as “binds”.

On to B2, for which the binding result in test [2] and in test [3] was “no binding” throughout.

For the molecule B3, the binding result in test [2] is “no binding”.

Take B4: the binding result in test [2] is reported as “no binding”.

B5: in test [4], the binding result is listed as “no binding”.
